Source: US20260209362A1 (VIB VZW, published 2026)

T1: biotinylated recombinant mouse IL-12Rβ2 (mouse, UniProt P97378 24-637, random biotinylated)
T1 construct: Recombinant protein produced in-house, biotinylated; also called mIL-12RB2; mouse IL-12RB2
T1 sequence: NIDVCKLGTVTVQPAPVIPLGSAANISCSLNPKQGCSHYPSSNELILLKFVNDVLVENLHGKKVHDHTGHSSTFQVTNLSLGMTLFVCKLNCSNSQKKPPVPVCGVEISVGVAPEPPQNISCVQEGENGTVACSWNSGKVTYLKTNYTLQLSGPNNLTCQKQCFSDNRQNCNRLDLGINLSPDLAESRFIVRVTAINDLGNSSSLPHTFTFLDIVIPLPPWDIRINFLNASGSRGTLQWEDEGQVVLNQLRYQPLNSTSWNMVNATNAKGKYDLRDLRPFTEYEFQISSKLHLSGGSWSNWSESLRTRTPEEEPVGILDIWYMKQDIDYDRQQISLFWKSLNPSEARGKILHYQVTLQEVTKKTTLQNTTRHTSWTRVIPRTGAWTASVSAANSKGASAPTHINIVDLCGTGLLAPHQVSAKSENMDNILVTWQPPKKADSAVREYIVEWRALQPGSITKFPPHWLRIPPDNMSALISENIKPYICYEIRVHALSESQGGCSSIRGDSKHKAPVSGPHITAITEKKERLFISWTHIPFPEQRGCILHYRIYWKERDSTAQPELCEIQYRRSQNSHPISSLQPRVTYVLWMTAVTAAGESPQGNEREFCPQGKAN

T2: mouse IL-12Rβ2 expressed on cells (mouse, UniProt P97378 24-874)
T2 construct: HEK293T cells, stably transduced (cDNA NM_008354); also called mIL-12RB2
T2 sequence: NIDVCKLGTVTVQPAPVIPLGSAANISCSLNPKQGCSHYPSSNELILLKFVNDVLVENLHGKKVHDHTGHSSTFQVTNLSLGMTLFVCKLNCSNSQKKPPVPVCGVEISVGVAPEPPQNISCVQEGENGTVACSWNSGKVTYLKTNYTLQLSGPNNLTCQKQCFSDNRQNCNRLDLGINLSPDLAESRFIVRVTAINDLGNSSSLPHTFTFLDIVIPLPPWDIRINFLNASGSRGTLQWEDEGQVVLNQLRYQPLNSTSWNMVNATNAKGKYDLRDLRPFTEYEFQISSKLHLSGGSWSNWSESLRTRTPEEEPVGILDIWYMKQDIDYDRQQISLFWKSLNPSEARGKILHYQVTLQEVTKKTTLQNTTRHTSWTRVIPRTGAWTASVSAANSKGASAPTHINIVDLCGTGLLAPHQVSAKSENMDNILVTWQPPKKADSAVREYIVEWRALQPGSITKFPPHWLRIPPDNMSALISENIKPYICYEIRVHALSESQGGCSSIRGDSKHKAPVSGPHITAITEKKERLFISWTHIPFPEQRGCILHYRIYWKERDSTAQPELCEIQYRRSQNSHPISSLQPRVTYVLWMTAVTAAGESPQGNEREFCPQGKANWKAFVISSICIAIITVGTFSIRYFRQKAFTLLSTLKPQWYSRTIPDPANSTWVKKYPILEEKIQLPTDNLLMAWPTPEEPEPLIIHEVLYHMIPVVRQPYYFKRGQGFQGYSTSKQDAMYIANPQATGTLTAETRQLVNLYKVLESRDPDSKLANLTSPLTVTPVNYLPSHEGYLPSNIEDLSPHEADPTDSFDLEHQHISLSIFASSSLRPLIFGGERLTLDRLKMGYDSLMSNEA

T3: biotinylated recombinant human IL-12Rβ2 (produced in-house) (human, UniProt Q99665 24-622, random biotinylated)
T3 construct: also called hIL-12RB2; hIL12RB2
T3 sequence: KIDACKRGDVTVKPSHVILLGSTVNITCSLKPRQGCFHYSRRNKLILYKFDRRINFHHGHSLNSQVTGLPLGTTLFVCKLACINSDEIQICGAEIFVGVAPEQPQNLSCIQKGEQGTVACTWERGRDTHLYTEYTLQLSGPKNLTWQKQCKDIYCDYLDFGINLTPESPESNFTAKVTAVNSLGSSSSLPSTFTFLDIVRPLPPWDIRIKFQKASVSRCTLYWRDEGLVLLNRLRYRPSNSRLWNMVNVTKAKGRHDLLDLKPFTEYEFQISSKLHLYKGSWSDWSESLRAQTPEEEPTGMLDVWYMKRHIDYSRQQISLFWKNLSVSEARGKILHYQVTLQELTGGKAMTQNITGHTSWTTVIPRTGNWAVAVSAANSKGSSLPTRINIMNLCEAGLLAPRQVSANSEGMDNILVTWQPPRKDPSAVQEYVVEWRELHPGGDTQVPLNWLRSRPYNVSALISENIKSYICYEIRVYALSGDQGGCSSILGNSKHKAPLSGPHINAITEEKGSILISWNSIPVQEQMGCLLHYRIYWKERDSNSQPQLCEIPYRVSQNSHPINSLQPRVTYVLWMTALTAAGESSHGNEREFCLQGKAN

T4: biotinylated recombinant mouse IL-12Rβ2 (produced in-house) (mouse, UniProt P97378 24-637, random biotinylated)
T4 construct: also called mIL-12RB2; mIL12RB2
T4 sequence: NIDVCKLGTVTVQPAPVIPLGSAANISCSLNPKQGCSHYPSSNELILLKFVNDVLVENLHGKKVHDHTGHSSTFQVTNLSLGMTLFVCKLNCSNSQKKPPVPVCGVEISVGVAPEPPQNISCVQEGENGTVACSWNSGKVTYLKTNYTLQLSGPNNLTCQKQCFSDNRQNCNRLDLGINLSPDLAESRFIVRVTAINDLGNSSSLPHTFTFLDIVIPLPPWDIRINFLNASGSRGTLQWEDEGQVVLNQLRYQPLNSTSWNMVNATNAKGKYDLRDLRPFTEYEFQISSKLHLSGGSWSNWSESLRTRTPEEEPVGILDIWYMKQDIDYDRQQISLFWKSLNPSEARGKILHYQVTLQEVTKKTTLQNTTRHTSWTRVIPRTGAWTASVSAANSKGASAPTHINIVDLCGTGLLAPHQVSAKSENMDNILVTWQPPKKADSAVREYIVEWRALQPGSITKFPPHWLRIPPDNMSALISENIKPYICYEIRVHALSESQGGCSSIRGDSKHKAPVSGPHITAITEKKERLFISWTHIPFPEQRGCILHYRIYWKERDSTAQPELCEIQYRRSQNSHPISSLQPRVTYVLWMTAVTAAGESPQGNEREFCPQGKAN


Columns and labels:
[1] = molecular target: T1, biotinylated recombinant mouse IL-12Rβ2; assay: ELISA, periplasmic extract on biotinylated mIL-12Rβ2, signal over control wells
[2] = molecular target: biotinylated recombinant human IL-12Rβ2 (human) (UniProt Q99665); assay: ELISA, periplasmic extract on biotinylated hIL-12Rβ2, signal over control wells
[3] = molecular target: T2, mouse IL-12Rβ2 expressed on cells; assay: flow cytometry, P.E. VHH on HEK293T cells expressing mIL-12RB2
[4] = molecular target: T3, biotinylated recombinant human IL-12Rβ2 …; assay: ELISA, P.E. VHH on biotinylated hIL-12RB2
[5] = molecular target: T4, biotinylated recombinant mouse IL-12Rβ2 …; assay: ELISA, P.E. VHH on biotinylated mIL-12RB2, signal ratio to control well
[6] = molecular target: T3, biotinylated recombinant human IL-12Rβ2 …; assay: ELISA, P.E. VHH on biotinylated hIL-12RB2, signal ratio to control well
[7] = molecular target: T2, mouse IL-12Rβ2 expressed on cells; assay: flow cytometry, P.E. VHH on HEK293T cells stably expressing mIL-12RB2

| Binder | ELISA binding mIL-12RB2/control [1] [ratio] | ELISA binding hIL-12RB2/control [2] | % cells bound [3] [%] | dMFI [3] | binding result [4] | ELISA mIL12RB2/control [5] | ELISA hIL12RB2/control [6] | % cells bound [7] [%] | dMFI [7] |
| --- | --- | --- | --- | --- | --- | --- | --- | --- | --- |
| anti-IL-12Rβ2 VHH clone 20460 (VHH, not shown: small tags and cut ends, tested as periplasmic extract; also called 3CRM63) VHH: QVQLQESGGGLVQAGGSLRLSCAASGFTLGSYAMSWVRQAPGKGLEWVSSISSSGTNTNYADSVKGRFTISRDNAKNTLYLQMNSLKPEDTAVYYCAKASQNHSPPGQGTPVTVSS | 16.6 | 2.43 | – | – | – | – | – | – | – |
| anti-IL-12Rβ2 VHH clone 3CAM65 (VHH, not shown: small tags and cut ends, tested as periplasmic extract; also called 20513) VHH: QVQLQESGGGLVQAGGSLRLSCAPSGRTFTTYVMGWFRQAPGKEREFVAHISWSGGRTYYADSVKGRFTISRDNAKNTSYLQMNSLKPEDTAVYYCAAARSDAVRIGYAEGYEYWGQGTQVTVSS | – | – | 57.9 | 315 | no binding | 5.98 | 1.25 | 57.9 | 315 |
| anti-IL-12Rβ2 VHH clone 2CAMS52 (VHH, not shown: small tags and cut ends, tested as periplasmic extract; also called 20535; 2CAMSSZ) VHH: QVQLQESGGGLVQPGASLRLSCATSGPTLSTYAMGWFRQAPGKEREVVATISWSGGRVTYVDSVKGRFTISRDNAKNTAYLQMNRLRPDDTAVYTCAARESDYGAYDYWGQGTQVTVSS | – | – | 60.9 | 342 | no binding | 5.41 | 0.97 | 60.9 | 342 |
| anti-IL-12Rβ2 VHH clone 3CAM57 (VHH, not shown: small tags and cut ends, tested as periplasmic extract; also called 20512; 3CAMS7) VHH: QVQLQESGGGLVQAGGSLRLSCTPSGRTFSTLAMGWFRQAPGKEREVVATISWSGGRTYYASSVKSRFTISRDNAKNTAYLQMNSLRPDDTAVYYCAARGTDYGAYDYWGQGTQVTVSS | – | – | 62.2 | 351 | no binding | 47.4 | 1.31 | 62.2 | 351 |
| anti-IL-12Rβ2 VHH clone 3CAM1 (VHH, not shown: small tags and cut ends, tested as periplasmic extract) VHH: QVQLQESGGGLVQAGGSLRLSCAASGRTFGSHRMGWFRQAPGQEREFVAAIAWRGGTQYYTDSVKGRFTISRDNANNTVYLQMNSLKPEDAAVYYCVAGEGSSWGDITDPRRYVFWGQGTQVTVSS | – | – | 63 | 376 | no binding | 3.3 | 1.2 | 63 | 376 |
